Values of other authors, collected in publication PMC4480918.

Assays:
Assay in all cases: NMR
[1] = molecular target: His80 (UniProt position 121, KELYGHTLVWH); settings: free enzyme (not the 2FCb glycosyl-enzyme intermediate)
[2] = test system: His61; settings: redox state not stated
[3] = test system: His92; settings: redox state not stated

## Catalytic domain of beta-(1,4)-glycosidase Cex (CexCD) (Cellulomonas fimi)
[1]
  pKa: 7.9

## Plastocyanin (A.v. Pc) (Anabaena variabilis)
[2]
  pKa: 7.1
[3]
  pKa: 5.1
